Among the data in patent US20160272706A1 (AstraZeneca / MedImmune, published 2016) are Kd, Fld improvement and IC50 values, retold here.

Residue numbers refer to the chain shown, from its start. In names and notes the source's numbering stands.

Test [1] concerns the target T1, Human IL-13 (human, UniProt P35225 35-146).
T1 construct: also called human interleukin 13 (Peprotech); the antigen
The experiment in a line: BIAcore. (In general: Surface plasmon resonance follows binding to a sensor surface in real time, without labels.)

The target of test [2] is T1, Human IL-13. The experiment in a line: IC50 of the parent scFv divided by IC50 of the clone, biochemical receptor-ligand inhibition assay, purified scFv.
Test [3] has as its target T1, Human IL-13. The experiment in a line: biochemical receptor-ligand inhibition assay, purified scFv titrated; the IL-13 receptor used is not named in Example 1.
Test [4] concerns the target T1, Human IL-13. Kind of test: IC50 of the parent scFv divided by IC50 of the clone, biochemical receptor-ligand inhibition assay, purified scFv (second panel).
Test [5] addresses T1, Human IL-13. Kind of test: biochemical receptor-ligand inhibition assay, purified scFv titrated (second panel); the IL-13 receptor used is not named in Example 1.
The target of test [6] is FLAG-tagged human IL-13 (R130 variant) (human, UniProt P35225 35-146). Kind of test: HTRF receptor-ligand competition; FLAG-tagged human IL-13 (312.5 pM) against DyLight650-labelled human IL-13Rα2 (10 nM); geometric mean. For orientation: TR-FRET usually uses a lanthanide donor and a delayed reading to cut background.
The target in test [7] is T1, Human IL-13. Kind of test: KinExA at 37° C., IgG fixed at 100 or 4 pM, human IL-13 titrated. Background: Kinetic exclusion samples the free partner from a solution-phase mixture.

B1: BAK1183H4 antibody (antibody, V domains shown)
VH: QVQLVQSGAEVKKPGASVKVSCKASGYTFTNYGLSWVRQAPGQGLEWMGWINYDGGNTQYGQEFQGRVTMTTDTSTSTAYMELRSLRSDDTAVYYCARDSSSSWARWFFDLWGRGTLVTVSS
VL: SYVLTQPPSVSVAPGKTARIPCGGNIIGSKLVHWYQQKPGQAPVLVIYDDGDRPSGIPERFSGSNSGNTATLTISRVEAGDEADYYCQVWDTGSDPVVFGGGTKLTVL
notes: also called 1183H04; BAK1183H04
The Kd is a measure of binding affinity in units of concentration. Read a high Kd as lower affinity. In general, IC50 refers to the concentration that inhibits the measured activity by half. Read a low IC50 as greater potency in that assay. As to B1, the Kd in test [1] was found to be 0.081 nM. For the same molecule, the Fld improvement in test [2] and in test [4] was 1 fold throughout. For the same molecule, the IC50 in test [3] turned out to be 40.6 nM; in test [5], 46 nM.

B2: 1183H4_VH_VL_nonGL IgG1-YTE (antibody, V domains shown)
VH: B1 VH
VL: B1 VL
notes: Non-germlined parent as IgG1 with the YTE mutations (M252Y/S254T/T256E, EU); also called Parent IgG1-YTE; parent clone
For the molecule B2, the IC50 in test [6] came out at 1.34 nM.

B3: 13NG0068 (scFv, V domains shown)
VH: B1 VH with M48V, S77G
VL: B1 VL with S9L, I26L, S29A, K30R, V46I, Y48M, G51I
notes: purified scFv from the mini-recombination library; member of group m20; also called ZZ0SEB-B02; copies: 1 + 1
Turning to B3, the Fld improvement in test [2] was 7.5 fold. This molecule showed an IC50 in test [3] of 5.42 nM.

B4: 13NG0074 (antibody, V domains shown)
VH: B1 VH
VL: B1 VL with I26L, S29A, K30R, V46I, I47M, Y48F, G51Q, D95L
notes: IgG in the KinExA assay
B4 showed a Kd in test [7] of 0.004 nM. Besides, the Fld improvement in test [2] turned out to be 3.76 fold. Further, the midpoint of inhibition in test [3], the IC50, lay at 10.8 nM.

B5: 13NG0067 (scFv, V domains shown)
VH: B1 VH with S85G
VL: B1 VL with I26M, I27V, S29A, K30R, V46I, Y48M, G51I, D95S
notes: purified scFv from the mini-recombination library; member of group m20; also called ZZ0SEF-H04; copies: 1 + 1
Take B5: the Fld improvement in test [2] amounted to 6.12 fold. In test [3], 6.63 nM corresponded to half-maximal inhibition (IC50).

B6: 13NG0069 (scFv, V domains shown)
VH: B1 VH
VL: B1 VL with I26M, I27V, S29A, K30R, V46I, Y48M, G51I, D95R
notes: purified scFv from the mini-recombination library; member of group m20; also called ZZ0SEA-A03; copies: 1 + 1
As for B6, the Fld improvement in test [2] is 5.18 fold. In test [3], this molecule displayed an IC50 of 7.85 nM.

B7: 13NG0081 (scFv, V domains shown)
VH: B1 VH with M48V
VL: B1 VL with I26L, S29A, K30R, V46I, I47V, G51M, D95R
notes: purified scFv from the mini-recombination library; member of group m20; the text gives two different numbers for the VH; also called ZZ0SE9-C11; copies: 1 + 1
With B7, the Fld improvement in test [4] came out at 5.2 fold. In test [5], this molecule came in with an IC50 of 8.9 nM.

B8: 13NG0087 (scFv, V domains shown)
VH: B1 VH
VL: B1 VL with I26M, I27V, G28A, S29A, K30R, V46I, I47M, Y48F, G51Q, D95L
notes: purified scFv from the mini-recombination library; member of group m20; also called ZZ0SEF-E05; copies: 1 + 1
Consider B8, for which the Fld improvement in test [4] was 6.5 fold. The molecule further showed an IC50 in test [5] of 7.11 nM.

B9: 13NG0084 (scFv, V domains shown)
VH: B1 VH
VL: B1 VL with I26L, G28A, S29A, K30R, V46I, I47V, Y48F, G51E, D95S
notes: purified scFv from the mini-recombination library; member of group m20; also called ZZ0SED-F07; copies: 1 + 1
For the molecule B9, the Fld improvement in test [4] came out at 4.3 fold. In test [5], the IC50 amounted to 10.7 nM.

B10: 13NG0076 (scFv, V domains shown)
VH: B1 VH
VL: B1 VL with I26M, I27V, S29A, K30R, Y48M, G51I, D95R
notes: purified scFv from the mini-recombination library; member of group m20; also called ZZ0SEA-F10; copies: 1 + 1
Take B10: the Fld improvement in test [2] stood at 5.09 fold. The IC50 in test [3] came out at 7.98 nM.

B11: 13NG0079 (scFv, V domains shown)
VH: B1 VH
VL: B1 VL with I26L, S29A, K30R, V46I, I47V, G51M, D95L
notes: purified scFv from the mini-recombination library; member of group m20; also called ZZ0SEA-B02; copies: 1 + 1
On to B11, for which the Fld improvement in test [4] stood at 5.8 fold. This molecule also registered an IC50 in test [5] of 7.86 nM.

B12: 13NG0088 (scFv, V domains shown)
VH: B1 VH
VL: B1 VL with I26L, S29A, K30R, Y48M, G51I, D95R
notes: purified scFv from the mini-recombination library; member of group m20; also called ZZ0SEC-C01; copies: 1 + 1
As to B12, the Fld improvement in test [4] was found to be 7 fold. The IC50 in test [5] was 6.53 nM.

B13: 13NG0080 (scFv, V domains shown)
VH: B1 VH with V2A
VL: B1 VL with I26L, G28A, S29A, K30R, V46I, I47V, Y48F, G51E, A79T, D95S
notes: purified scFv from the mini-recombination library; member of group m20; also called ZZ0SEA-D07; copies: 1 + 1
Take B13: in test [4], the Fld improvement was 4.1 fold. Moreover, the IC50 in test [5] came out at 11.2 nM.

B14: 13NG0078 (scFv, V domains shown)
VH: B1 VH with M48V
VL: B1 VL with I26L, G28A, S29A, K30R, V46I, I47M, Y48F, G51Q, A79T, D95L
notes: purified scFv from the mini-recombination library; member of group m20; also called ZZ0SFL-G06; copies: 1 + 1
With B14, in test [4], the Fld improvement was determined as 6.4 fold. Besides, the IC50 in test [5] is 7.22 nM.

B15: 13NG0075 (scFv, V domains shown)
VH: B1 VH
VL: B1 VL with I26M, I27V, S29A, K30R, Y48M, G51I, D95R
notes: purified scFv from the mini-recombination library; member of group m20; also called ZZ0SEE-A06; copies: 1 + 1
For B15, the Fld improvement in test [2] was found to be 4.21 fold. The molecule further returned an IC50 in test [3] of 9.65 nM.

B16: 13NG0072 (scFv, V domains shown)
VH: B1 VH
VL: B1 VL with I26M, I27V, S29A, K30R, V46I, I47V, G51M, A79T, D95R
notes: purified scFv from the mini-recombination library; member of group m20; also called ZZ0SEA-H11; copies: 1 + 1
Regarding B16, the Fld improvement in test [2] was 3.16 fold. Also, in test [3], the IC50 was 12.8 nM.

B17: 13NG0085 (scFv, V domains shown)
VH: B1 VH
VL: B1 VL with I26M, I27V, S29A, K30R, V46I, Y48M, G51I, D95R
notes: purified scFv from the mini-recombination library; member of group m20; also called ZZ0SEF-G10; copies: 1 + 1
In the case of B17, in test [4], the Fld improvement stood at 4.2 fold. In test [5], this molecule yielded an IC50 of 10.8 nM.

B18: 13NG0071 (scFv, V domains shown)
VH: B1 VH
VL: B1 VL with I26M, I27V, S29A, K30R, V46I, I47V, Y48F, G51E, D95L
notes: purified scFv from the mini-recombination library; member of group m20; also called ZZ0SEE-A09; copies: 1 + 1
B18: the Fld improvement in test [2] stood at 3.8 fold. In test [3], this molecule returned an IC50 of 10.7 nM.

B19: 13NG0073 (antibody, V domains shown)
VH: B1 VH
VL: B1 VL with I26L, S29A, K30R, V46I, Y48M, G51I, D95R
notes: IgG in the KinExA assay; also called IL13NG0073
The molecule B19 had a Kd in test [7] of 0.0046 nM. For the same molecule, the Fld improvement in test [2] was 5.02 fold. In test [3], this molecule returned an IC50 of 8.09 nM.

B20: 13NG0070 (scFv, V domains shown)
VH: B1 VH
VL: B1 VL with I26M, I27V, S29A, K30R, V46I, I47V, Y48F, G51E, D95R
notes: purified scFv from the mini-recombination library; member of group m20; also called ZZ0SED-B06; copies: 1 + 1
As to B20, in test [2], the Fld improvement was 4.28 fold. The molecule further gave a half-inhibitory concentration (IC50) in test [3] of 9.49 nM.

B21: 13NG0082 (scFv, V domains shown)
VH: B1 VH
VL: B1 VL with I26M, I27V, S29A, K30R, V46I, I47V, Y48F, G51E, D95R
notes: purified scFv from the mini-recombination library; member of group m20; also called ZZ0SEF-E03; copies: 1 + 1
Turning to B21, the Fld improvement in test [4] came out at 4.2 fold. This molecule also gave an IC50 in test [5] of 11 nM.

B22: 13NG0086 (scFv, V domains shown)
VH: B1 VH
VL: B1 VL with I26M, I27V, S29A, K30R, V46I, I47V, G51M, D95R
notes: purified scFv from the mini-recombination library; member of group m20; also called ZZ0SEB-F04; copies: 1 + 1
With B22, in test [4], the Fld improvement is 3.2 fold. For the same molecule, the IC50 in test [5] is 14.2 nM.

B23: 13NG0077 (scFv, V domains shown)
VH: B1 VH
VL: B1 VL with I26M, I27V, S29A, K30Y, V46I, I47V, G51M, D95S
notes: purified scFv from the mini-recombination library; member of group m20; also called ZZ0SED-A07; copies: 1 + 1
As for B23, in test [2], the Fld improvement turned out to be 3.93 fold. Besides, the IC50 in test [3] was determined as 10.3 nM.

B24: 13NG0083 (antibody, V domains shown)
VH: B1 VH
VL: B1 VL with I26M, I27V, S29A, K30R, V46I, I47V, Y48F, G51E, D95S
notes: also called unmodified 13NG0083; WT
Consider B24, for which the Fld improvement in test [4] amounted to 5.2 fold. In test [5], this molecule gave an IC50 of 8.88 nM.
